Data on one molecule can be found in patent publication US20170067880A1 (Genentech, published 2017).

The target of test [1] is T1, MBP-SDS with C-terminal His tag, expressed in S. aureus (UniProt P0AEX9 27-396 = MBP).
T1 construct: mature; One of the small SD peptide constructs, expressed in S. aureus RN4220 delta sortase; not shown: C-terminal His tag
Description: Western blot of MBP fusion constructs expressed in S. aureus. (In general: In western blotting, separated proteins are transferred to a membrane and probed.)

In test [2] the target is T2, MBP-DSD with C-terminal His tag, expressed in S. aureus (UniProt P0AEX9 27-396 = MBP).
T2 construct: mature; One of the small SD peptide constructs, expressed in S. aureus RN4220 delta sortase; not shown: C-terminal His tag
Described as above.

Test [3] has as its target T3, MBP-SD with C-terminal His tag, expressed in S. aureus (UniProt P0AEX9 27-396 = MBP).
T3 construct: mature; One of the small SD peptide constructs, expressed in S. aureus RN4220 delta sortase; not shown: C-terminal His tag
The test is described as above.

Test [4] deals with T4, E. coli expressed N-terminal Unizyme tagged SdrE, incubated with S. aureus lysate (Staphylococcus aureus (USA300), UniProt Q2FJ77 53-1120, modified by incubation with cleared lysate of delta-Pan Sdr mutant Newman S. aureus; modification not identified).
T4 construct: mature; Made in E. coli 58F3, purified, captured on NiNta resin, then incubated with S. aureus lysate for 1 hr at 37 C; also called E. coli expressed Sdr protein SdrE; not shown: N-terminal Unizyme tag (ST239 vector, Genentech)
Briefly: Western blot of NiNta-captured E. coli protein after incubation with S. aureus lysate.

Test [5] deals with T5, E. coli expressed N-terminal Unizyme tagged SdrD, incubated with S. aureus lysate (Staphylococcus aureus (USA300), UniProt Q2FJ78 36-1347, modified by incubation with cleared lysate of delta-Pan Sdr mutant Newman S. aureus; modification not identified).
T5 construct: mature; Made in E. coli 58F3, purified, captured on NiNta resin, then incubated with S. aureus lysate for 1 hr at 37 C; also called E. coli expressed Sdr protein SdrD; not shown: N-terminal Unizyme tag (ST239 vector, Genentech)
Described as above.

In test [6] the target is T6, E. coli expressed N-terminal Unizyme tagged SdrC, incubated with S. aureus lysate (Staphylococcus aureus (USA300), UniProt Q2FJ79 51-913, modified by incubation with cleared lysate of delta-Pan Sdr mutant Newman S. aureus; modification not identified).
T6 construct: mature; Made in E. coli 58F3, purified, captured on NiNta resin, then incubated with S. aureus lysate for 1 hr at 37 C; also called E. coli expressed Sdr protein SdrC; not shown: N-terminal Unizyme tag (ST239 vector, Genentech)
Described as above.

T5 sequence (Q2FJ78 36-1347): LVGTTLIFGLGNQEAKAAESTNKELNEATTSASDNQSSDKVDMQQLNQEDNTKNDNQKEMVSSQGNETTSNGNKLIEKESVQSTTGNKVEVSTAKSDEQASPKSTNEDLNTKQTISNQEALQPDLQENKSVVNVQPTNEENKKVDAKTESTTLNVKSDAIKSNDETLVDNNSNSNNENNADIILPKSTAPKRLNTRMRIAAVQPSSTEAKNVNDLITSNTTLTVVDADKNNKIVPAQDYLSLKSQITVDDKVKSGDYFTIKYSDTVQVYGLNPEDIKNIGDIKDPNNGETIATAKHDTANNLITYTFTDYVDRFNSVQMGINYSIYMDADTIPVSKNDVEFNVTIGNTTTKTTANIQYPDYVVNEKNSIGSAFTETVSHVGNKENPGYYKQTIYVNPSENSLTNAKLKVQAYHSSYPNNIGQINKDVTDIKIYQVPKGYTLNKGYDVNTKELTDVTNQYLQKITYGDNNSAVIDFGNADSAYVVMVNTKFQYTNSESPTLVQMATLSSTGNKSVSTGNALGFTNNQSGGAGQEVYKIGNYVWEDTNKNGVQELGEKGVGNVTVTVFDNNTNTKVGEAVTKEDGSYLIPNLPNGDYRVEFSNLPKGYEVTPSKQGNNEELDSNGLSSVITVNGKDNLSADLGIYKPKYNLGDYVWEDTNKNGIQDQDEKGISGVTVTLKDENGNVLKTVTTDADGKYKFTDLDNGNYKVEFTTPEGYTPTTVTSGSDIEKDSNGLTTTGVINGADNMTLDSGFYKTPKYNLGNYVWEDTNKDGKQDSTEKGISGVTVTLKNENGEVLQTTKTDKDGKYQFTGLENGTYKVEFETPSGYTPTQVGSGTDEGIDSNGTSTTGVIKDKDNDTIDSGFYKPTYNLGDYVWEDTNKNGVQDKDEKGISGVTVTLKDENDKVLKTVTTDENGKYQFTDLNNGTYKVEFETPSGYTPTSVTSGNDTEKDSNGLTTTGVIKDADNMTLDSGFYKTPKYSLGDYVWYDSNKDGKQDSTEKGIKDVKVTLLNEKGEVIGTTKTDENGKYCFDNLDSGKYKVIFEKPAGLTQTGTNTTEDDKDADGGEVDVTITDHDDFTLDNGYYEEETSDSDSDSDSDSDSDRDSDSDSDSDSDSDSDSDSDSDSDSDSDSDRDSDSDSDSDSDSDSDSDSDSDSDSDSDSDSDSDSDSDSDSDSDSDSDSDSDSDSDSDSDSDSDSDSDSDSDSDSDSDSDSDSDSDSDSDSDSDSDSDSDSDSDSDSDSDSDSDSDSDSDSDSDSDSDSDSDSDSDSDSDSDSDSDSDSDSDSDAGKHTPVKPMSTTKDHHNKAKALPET
T4 sequence (Q2FJ77 53-1120): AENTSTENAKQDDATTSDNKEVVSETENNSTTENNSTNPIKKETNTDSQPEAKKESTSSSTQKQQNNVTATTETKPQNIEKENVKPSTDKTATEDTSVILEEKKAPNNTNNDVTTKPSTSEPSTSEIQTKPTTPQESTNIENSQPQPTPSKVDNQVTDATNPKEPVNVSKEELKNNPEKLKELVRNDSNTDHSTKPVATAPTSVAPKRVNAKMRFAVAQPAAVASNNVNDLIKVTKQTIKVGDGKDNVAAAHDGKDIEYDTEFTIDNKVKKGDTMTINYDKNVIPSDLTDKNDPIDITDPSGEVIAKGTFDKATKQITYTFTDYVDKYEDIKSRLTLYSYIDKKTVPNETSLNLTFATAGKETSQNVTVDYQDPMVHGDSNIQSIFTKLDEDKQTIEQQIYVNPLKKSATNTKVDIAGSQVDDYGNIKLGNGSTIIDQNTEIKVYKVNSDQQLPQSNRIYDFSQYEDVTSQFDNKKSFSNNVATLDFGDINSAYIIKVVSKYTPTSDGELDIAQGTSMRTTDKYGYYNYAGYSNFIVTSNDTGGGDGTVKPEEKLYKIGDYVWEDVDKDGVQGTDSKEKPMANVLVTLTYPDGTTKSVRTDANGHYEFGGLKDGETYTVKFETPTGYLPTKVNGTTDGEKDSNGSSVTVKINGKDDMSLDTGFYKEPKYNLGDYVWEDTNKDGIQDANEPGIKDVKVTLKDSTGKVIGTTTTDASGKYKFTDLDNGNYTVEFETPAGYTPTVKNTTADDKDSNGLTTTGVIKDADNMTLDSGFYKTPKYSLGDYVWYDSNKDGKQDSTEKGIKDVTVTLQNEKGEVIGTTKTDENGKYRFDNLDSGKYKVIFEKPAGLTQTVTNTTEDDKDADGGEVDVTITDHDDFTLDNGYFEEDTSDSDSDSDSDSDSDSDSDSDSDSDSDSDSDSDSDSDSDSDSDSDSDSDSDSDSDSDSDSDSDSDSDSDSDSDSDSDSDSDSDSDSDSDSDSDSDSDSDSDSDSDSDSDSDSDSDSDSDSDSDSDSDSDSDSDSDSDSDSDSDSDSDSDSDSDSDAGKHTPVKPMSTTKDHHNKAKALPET
T6 sequence (Q2FJ79 51-913): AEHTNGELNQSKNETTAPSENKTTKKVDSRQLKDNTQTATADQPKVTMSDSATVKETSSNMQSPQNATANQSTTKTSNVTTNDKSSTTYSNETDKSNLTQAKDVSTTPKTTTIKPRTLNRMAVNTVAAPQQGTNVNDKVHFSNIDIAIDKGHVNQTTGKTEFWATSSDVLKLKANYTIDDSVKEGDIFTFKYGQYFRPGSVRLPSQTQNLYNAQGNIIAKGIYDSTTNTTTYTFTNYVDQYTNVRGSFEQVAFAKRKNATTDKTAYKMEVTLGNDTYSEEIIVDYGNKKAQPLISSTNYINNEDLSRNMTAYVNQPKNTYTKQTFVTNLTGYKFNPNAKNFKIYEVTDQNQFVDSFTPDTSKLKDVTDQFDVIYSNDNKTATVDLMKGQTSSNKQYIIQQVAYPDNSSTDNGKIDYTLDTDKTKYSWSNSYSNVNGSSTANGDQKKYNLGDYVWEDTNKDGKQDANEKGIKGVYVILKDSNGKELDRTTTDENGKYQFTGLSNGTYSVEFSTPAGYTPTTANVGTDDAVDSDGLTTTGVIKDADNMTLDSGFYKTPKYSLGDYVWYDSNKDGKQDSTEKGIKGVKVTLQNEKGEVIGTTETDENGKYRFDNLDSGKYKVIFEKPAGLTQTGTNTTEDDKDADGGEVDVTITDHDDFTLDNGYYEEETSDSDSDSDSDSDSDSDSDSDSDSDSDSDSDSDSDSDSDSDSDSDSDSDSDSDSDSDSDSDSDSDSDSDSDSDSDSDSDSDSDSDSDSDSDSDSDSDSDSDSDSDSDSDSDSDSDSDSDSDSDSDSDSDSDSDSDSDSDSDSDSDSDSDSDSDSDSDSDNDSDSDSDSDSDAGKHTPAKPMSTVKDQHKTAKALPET

B1: antibody F1 (antibody, V domains shown)
VH: EVQLLESGGGLVQPGGSLRLSCAASGFTLSRFAMSWVRQAPGRGLEWVASINNGNNPYYARSVQYRFTVSRDVSQNTVSLQMNNLRAEDSATYFCAKDHPSSGWPTFDSWGPGTLVTVSS
VL: DIQLTQSPSALPASVGDRVSITCRASENVGDWLAWYRQKPGKAPNLLIYKTSILESGVPSRFSGSGSGTEFTLTISSLQPDDFATYYCQHYIRFPYTFGQGTKLEIKR
notes: also called rF1; recombinant F1
For the molecule B1, the binding result in test [1] is on record as “no binding”; in test [2], “no binding”; in test [3], “no binding”; in test [4], “binds”; in test [5] it was “binds”; in test [6], “binds”.
